For three sequences, binding signal, binding signal (fold lower binding than TelDNA) and binding signal (fold lower affinity than TelDNA) results are on record in publication PMC11992676.

This data set concerns the target T1, TRF1 (recombinant, in-house purified) (UniProt P54274).
T1 sequence: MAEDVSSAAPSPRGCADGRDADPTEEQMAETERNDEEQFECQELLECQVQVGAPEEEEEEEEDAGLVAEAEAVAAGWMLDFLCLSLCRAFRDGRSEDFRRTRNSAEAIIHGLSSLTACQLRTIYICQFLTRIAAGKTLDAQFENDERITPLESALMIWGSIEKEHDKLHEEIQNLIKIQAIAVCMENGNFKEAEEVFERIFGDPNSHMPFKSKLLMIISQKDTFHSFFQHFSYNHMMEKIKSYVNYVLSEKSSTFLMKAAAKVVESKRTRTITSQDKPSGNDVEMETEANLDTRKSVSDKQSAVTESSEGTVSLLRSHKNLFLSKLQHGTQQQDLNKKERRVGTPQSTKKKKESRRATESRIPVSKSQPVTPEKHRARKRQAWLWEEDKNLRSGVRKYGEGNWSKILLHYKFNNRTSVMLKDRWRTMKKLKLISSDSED
Briefly: EMSA. The conditions noted are these: 2 mM Mg2+, 50 mM Tris-Cl pH 8.0, 2 mM MgCl2, 150 mM KCl, 0.5 mM DTT, 10% glycerol, 5 nM oligonucleotide, 30 min room temperature, 1% agarose gel in 1x TBE at 4 C. (A gel shift assay detects complexes by their altered migration in electrophoresis.)

With “GACCATGCTTAGGGTTAGGGTTAGGGTTAGGGTTATCATACAA (double strand) [TelDNA]”, the binding signal (scale: fold) worked out at 1.
As for “GACCATGCTTATCCCCATTTGTATTATCCCCATTTCATACAAA (double strand) [Non-TelDNA]”, the binding signal (fold lower binding than TelDNA) came to 5.
In the case of “GACCAUGCUUAGGGUUAGGGUUAGGGUUAGGGUUAUCAUACAA / TTGTATGATAACCCTAACCCTAACCCTAACCCTAAGCATGGTC [Telomeric DNA:RNA hybrid]”, the binding signal (fold lower affinity than TelDNA) (strand 1 is RNA, strand 2 is DNA) amounted to 7.
